Consider three molecules from patent publication US20220119534A1 (DRAGONFLY THERAPEUTICS, published 2022).

In assay [1] the target is T1, Human CLEC12A-His (recombinant, K244 WT) (human, UniProt Q5QGZ9 65-265).
T1 construct: Made in house (Dragonfly Tx); also called hCLEC12A; hCLEC12A-His; not shown: His tag
T1 sequence: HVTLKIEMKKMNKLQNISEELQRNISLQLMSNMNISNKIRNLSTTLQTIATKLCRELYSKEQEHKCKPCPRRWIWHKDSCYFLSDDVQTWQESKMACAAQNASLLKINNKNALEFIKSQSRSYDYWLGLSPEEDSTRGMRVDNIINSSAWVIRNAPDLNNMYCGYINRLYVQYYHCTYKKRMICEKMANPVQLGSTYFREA
In words: SPR, two-state fit (ka1); after pH 8, 40C, 2 wks. A general note: SPR reads the build-up and loss of mass on a sensor chip optically.

For assay [2], the target named is T2, Human CLEC12A expressed on cells (Ba/F3-hCLEC12A, PL21, HL60) (human, UniProt Q5QGZ9 1-265).
T2 sequence: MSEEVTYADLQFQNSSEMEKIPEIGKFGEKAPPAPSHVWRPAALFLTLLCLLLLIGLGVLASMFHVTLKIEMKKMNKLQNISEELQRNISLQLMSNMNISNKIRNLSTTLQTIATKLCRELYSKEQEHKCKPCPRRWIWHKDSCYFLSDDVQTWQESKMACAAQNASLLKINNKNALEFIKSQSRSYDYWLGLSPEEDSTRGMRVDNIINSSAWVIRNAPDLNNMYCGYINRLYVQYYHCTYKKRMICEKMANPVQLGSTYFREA
In words: cell-based or functional assay.

Assay [3] has as its target T2, Human CLEC12A expressed on cells …. Description: cell-based or functional assay. This is another data set of the same source.
Assay [4] addresses T3, Human CLEC12A-His (human, UniProt Q5QGZ9 65-265).
T3 construct: Recombinant soluble protein made in house; also called hCLEC12A-His; hCLEC12A; not shown: His tag
T3 sequence: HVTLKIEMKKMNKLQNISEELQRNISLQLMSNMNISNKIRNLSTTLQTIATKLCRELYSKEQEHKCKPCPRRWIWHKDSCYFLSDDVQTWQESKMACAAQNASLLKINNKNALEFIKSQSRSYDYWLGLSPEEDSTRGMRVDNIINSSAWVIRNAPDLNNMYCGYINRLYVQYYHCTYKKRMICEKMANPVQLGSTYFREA
Description: SPR, untreated CLEC12A; average of 3 replicates.

Assay [5] concerns the target T3, Human CLEC12A-His. Description: SPR; control sample (forced oxidation study).
The target in a further assay is T4, mFc-hNKG2D (human, UniProt P26718 73-216).
T4 construct: extracellular domain; Recombinant mFc-tagged NKG2D dimer, made in house; also called human NKG2D; not shown: mouse Fc tag
T4 sequence (looked up): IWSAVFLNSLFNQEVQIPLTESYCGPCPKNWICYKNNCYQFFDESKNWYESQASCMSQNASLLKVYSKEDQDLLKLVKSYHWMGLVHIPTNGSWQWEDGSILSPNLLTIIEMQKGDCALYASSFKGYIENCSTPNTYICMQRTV
Description: SPR; control sample (forced oxidation study).

The target of another assay is T5, Human CD16a V158 (human, UniProt P08637 17-208, biotinylated).
T5 construct: Bought recombinant receptor; also called hCD16a (V158); hFcγRIIIa V158
T5 sequence (P08637 17-208 F176V limits assumed): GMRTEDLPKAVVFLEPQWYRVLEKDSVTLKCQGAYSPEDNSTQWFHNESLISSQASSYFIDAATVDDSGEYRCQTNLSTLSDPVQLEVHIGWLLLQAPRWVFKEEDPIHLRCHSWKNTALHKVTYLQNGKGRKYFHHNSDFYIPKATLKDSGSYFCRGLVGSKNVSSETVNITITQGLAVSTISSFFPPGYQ
Description: SPR; control sample (forced oxidation study).

For a further assay, the target named is T6, Cynomolgus CD64 (cynomolgus monkey, UniProt A0A2K5U901 33-309, Probably biotinylated for capture, as in the sister examples (p-1094).).
T6 construct: Bought recombinant receptor; also called cFcγRI; Cynomolgus CD64 (FcγRI); not shown: The vendor's biotinylation and purification tag
T6 sequence (A0A2K5U901 entry or part of it limits assumed): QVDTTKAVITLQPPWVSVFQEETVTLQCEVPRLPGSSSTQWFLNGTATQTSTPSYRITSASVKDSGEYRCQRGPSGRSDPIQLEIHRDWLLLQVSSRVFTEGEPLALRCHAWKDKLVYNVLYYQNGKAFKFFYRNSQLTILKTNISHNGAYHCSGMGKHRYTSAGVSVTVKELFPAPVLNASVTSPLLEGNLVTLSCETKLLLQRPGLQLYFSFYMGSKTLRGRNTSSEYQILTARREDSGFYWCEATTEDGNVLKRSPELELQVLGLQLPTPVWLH
Description: SPR, cynomolgus CD64 captured; average for AB0192.

Assay [6] has as its target T7, recombinant human CD16a V158 (human, UniProt P08637 17-208, biotinylated).
T7 construct: also called FcγRIIIa V158; hCD16aV
In words: SPR 25C, kinetic fit, average.

T7 sequence (P08637 17-208 F176V limits assumed): as the sequence (P08637 17-208 F176V limits assumed) above

B1: AB0089 TriNKET (bispecific antibody, human IgG1, kappa)
chain: QLQLQESGPGLVKPSETLSLTCTVSGFSLTNYGLHWIRQPPGKCLEWIGVIWVGGATDYNPSLKSRVTISVDTSKNQFSLKLSSVQAADTAVYYCAKGDYGDTLDYWGQGTLVTVSSGGGGSGGGGSGGGGSGGGGSDIQMTQSPSSLSASVGDRVTITCHASQNINFWLSWYQQKPGKAPKLLIYEASNLHTGVPSRFSGSGSGTDFTLTISSLQPEDFATYYCQQSHSYPLTFGCGTKLEIKGSDKTHTCPPCPAPELLGGPSVFLFPPKPKDTLMISRTPEVTCVVVDVSHEDPEVKFNWYVDGVEVHNAKTKPREEQYNSTYRVVSVLTVLHQDWLNGKEYKCKVSNKALPAPIEKTISKAKGQPREPRVYTLPPCRDELTKNQVSLTCLVKGFYPSDIAVEWESNGQPENNYKTTPPVLVSDGSFTLYSKLTVDKSRWQQGNVFSCSVMHEALHNHYTQKSLSLSPG
heavy: EVQLVESGGGLVKPGGSLRLSCAASGFTFSSYSMNWVRQAPGKGLEWVSSISSSSSYIYYADSVKGRFTISRDNAKNSLYLQMNSLRAEDTAVYYCARGAPIGAAAGWFDPWGQGTLVTVSSASTKGPSVFPLAPSSKSTSGGTAALGCLVKDYFPEPVTVSWNSGALTSGVHTFPAVLQSSGLYSLSSVVTVPSSSLGTQTYICNVNHKPSNTKVDKKVEPKSCDKTHTCPPCPAPELLGGPSVFLFPPKPKDTLMISRTPEVTCVVVDVSHEDPEVKFNWYVDGVEVHNAKTKPREEQYNSTYRVVSVLTVLHQDWLNGKEYKCKVSNKALPAPIEKTISKAKGQPREPQVCTLPPSRDELTENQVSLTCLVKGFYPSDIAVEWESNGQPENNYKTTPPVLDSDGSFFLYSWLTVDKSRWQQGNVFSCSVMHEALHNHYTQKSLSLSPG
light: DIQMTQSPSSVSASVGDRVTITCRASQGISSWLAWYQQKPGKAPKLLIYAASSLQSGVPSRFSGSGSGTDFTLTISSLQPEDFATYYCQQGVSFPRTFGGGTKVEIKRTVAAPSVFIFPPSDEQLKSGTASVVCLLNNFYPREAKVQWKVDNALQSGNSQESVTEQDSKDSTYSLSSTLTLSKADYEKHKVYACEVTHQGLSSPVTKSFNRGEC
notes: F3' format heterodimer of three chains; human IgG1 Fc with EW-RVT and Y349C/S354C mutations; also called AB0089 Lot AB0089-002; CLEC12A TriNKET AB0089
As for B1, the kon (as a rule, a measure of how fast the partners come together) in [1] came to 9.93e+06 M⁻¹ s⁻¹. Besides, the “EC50, NK cell induction of IFNγ and CD107a in co-culture with HL60 cells (mean of three donors)” value in assay [2] turned out to be 0.05 nM. Besides, in assay [3], the “EC50, KHYG-1-CD16aV mediated cytotoxicity, HL60 cells” value was 0.27 nM and the “EC50, KHYG-1-CD16aV mediated cytotoxicity, PL21 cells” value was determined as 0.16 nM.

B2: AB0192 TriNKET (other)
chain: EVQLVESGGGVVQPGGSLRLSCAASGFTFNAFGMHWVRQAPGKCLEWVAFISSGSTSIYYANTVKGRFTISRDNSKNTLYLQMNSLRAEDTAVYYCARDGYPTGGAMDYWGQGTSVTVSSGGGGSGGGGSGGGGSGGGGSDIQMTQSPSSLSASVGDRVTITCKASQDIYNYLSWFQQKPGKAPKPLIYRANILVSGVPSRFSGSGSGQDYTFTISSLQPEDIATYYCLQFDAFPFTFGCGTKLEIKGSDKTHTCPPCPAPELLGGPSVFLFPPKPKDTLMISRTPEVTCVVVDVSHEDPEVKFNWYVDGVEVHNAKTKPREEQYNSTYRVVSVLTVLHQDWLNGKEYKCKVSNKALPAPIEKTISKAKGQPREPRVYTLPPCRDELTKNQVSLTCLVKGFYPSDIAVEWESNGQPENNYKTTPPVLVSDGSFTLYSKLTVDKSRWQQGNVFSCSVMHEALHNHYTQKSLSLSPG
heavy: EVQLVESGGGLVKPGGSLRLSCAASGFTFSSYSMNWVRQAPGKGLEWVSSISSSSSYIYYADSVKGRFTISRDNAKNSLYLQMNSLRAEDTAVYYCARGAPIGAAAGWFDPWGQGTLVTVSSASTKGPSVFPLAPSSKSTSGGTAALGCLVKDYFPEPVTVSWNSGALTSGVHTFPAVLQSSGLYSLSSVVTVPSSSLGTQTYICNVNHKPSNTKVDKKVEPKSCDKTHTCPPCPAPELLGGPSVFLFPPKPKDTLMISRTPEVTCVVVDVSHEDPEVKFNWYVDGVEVHNAKTKPREEQYNSTYRVVSVLTVLHQDWLNGKEYKCKVSNKALPAPIEKTISKAKGQPREPQVCTLPPSRDELTENQVSLTCLVKGFYPSDIAVEWESNGQPENNYKTTPPVLDSDGSFFLYSWLTVDKSRWQQGNVFSCSVMHEALHNHYTQKSLSLSPG
light: DIQMTQSPSSVSASVGDRVTITCRASQGISSWLAWYQQKPGKAPKLLIYAASSLQSGVPSRFSGSGSGTDFTLTISSLQPEDFATYYCQQGVSFPRTFGGGTKVEIKRTVAAPSVFIFPPSDEQLKSGTASVVCLLNNFYPREAKVQWKVDNALQSGNSQESVTEQDSKDSTYSLSSTLTLSKADYEKHKVYACEVTHQGLSSPVTKSFNRGEC
notes: the condition stands under assay; also called AB0192 Lot AB0192-005
For B2, the Kd (in general, a measure of binding affinity in units of concentration) in the assay with Human CLEC12A-His [4] amounted to 1.65 nM; in the assay with Human CLEC12A-His [5], 1.68 nM; with mFc-hNKG2D, 598 nM; with Human CD16a V158 it was 177 nM; with Cynomolgus CD64, 1.9 nM. Also, the koff – broadly, the first-order rate constant of dissociation – with Human CLEC12A-His [4] came out at 0.00115 s⁻¹; with Human CLEC12A-His [5], 0.00129 s⁻¹; with mFc-hNKG2D it was 0.124 s⁻¹; with Human CD16a V158, 0.0202 s⁻¹; with Cynomolgus CD64 it was 0.00012 s⁻¹. In addition, the kon is 698000 M⁻¹ s⁻¹ with Human CLEC12A-His [4]; 771000 M⁻¹ s⁻¹ in the assay with Human CLEC12A-His [5]; 208000 M⁻¹ s⁻¹ with mFc-hNKG2D; 115000 M⁻¹ s⁻¹ with Human CD16a V158; 62000 M⁻¹ s⁻¹ with Cynomolgus CD64.

B3: F3'-1602 TriNKET (other)
chain: QLQLQESGPGLVKPSETLSLTCTVSGFSLTNYGLHWIRQPPGKCLEWIGVIWSGGKTDYNPSLKSRVTISKDTSKNQFSLKLSSVQAADTAVYYCAKYDYDDSLDYWGQGTLVTVSSGGGGSGGGGSGGGGSGGGGSDIQMTQSPSSLSASVGDRVTITCHASQNINFWLSWYQQKPGKAPKLLIYEASNLHTGVPSRFSGSGSGTRFTLTISSLQPEDIATYYCQQSHSYPLTFGCGTKLEIKGSDKTHTCPPCPAPELLGGPSVFLFPPKPKDTLMISRTPEVTCVVVDVSHEDPEVKFNWYVDGVEVHNAKTKPREEQYNSTYRVVSVLTVLHQDWLNGKEYKCKVSNKALPAPIEKTISKAKGQPREPRVYTLPPCRDELTKNQVSLTCLVKGFYPSDIAVEWESNGQPENNYKTTPPVLVSDGSFTLYSKLTVDKSRWQQGNVFSCSVMHEALHNHYTQKSLSLSPG
heavy: EVQLVESGGGLVKPGGSLRLSCAASGFTFSSYSMNWVRQAPGKGLEWVSSISSSSSYIYYADSVKGRFTISRDNAKNSLYLQMNSLRAEDTAVYYCARGAPIGAAAGWFDPWGQGTLVTVSSASTKGPSVFPLAPSSKSTSGGTAALGCLVKDYFPEPVTVSWNSGALTSGVHTFPAVLQSSGLYSLSSVVTVPSSSLGTQTYICNVNHKPSNTKVDKKVEPKSCDKTHTCPPCPAPELLGGPSVFLFPPKPKDTLMISRTPEVTCVVVDVSHEDPEVKFNWYVDGVEVHNAKTKPREEQYNSTYRVVSVLTVLHQDWLNGKEYKCKVSNKALPAPIEKTISKAKGQPREPQVCTLPPSRDELTENQVSLTCLVKGFYPSDIAVEWESNGQPENNYKTTPPVLDSDGSFFLYSWLTVDKSRWQQGNVFSCSVMHEALHNHYTQKSLSLSPG
light: DIQMTQSPSSVSASVGDRVTITCRASQGISSWLAWYQQKPGKAPKLLIYAASSLQSGVPSRFSGSGSGTDFTLTISSLQPEDFATYYCQQGVSFPRTFGGGTKVEIKRTVAAPSVFIFPPSDEQLKSGTASVVCLLNNFYPREAKVQWKVDNALQSGNSQESVTEQDSKDSTYSLSSTLTLSKADYEKHKVYACEVTHQGLSSPVTKSFNRGEC
notes: CLEC12A scFv-Fc, NKG2D A49MI Fab-Fc, human IgG1 Fc; also called AB0237
Take B3: in assay [6], the dissociation constant (Kd) is 238 nM, the dissociation rate constant (koff) is 0.022 s⁻¹ and the kon was 94000 M⁻¹ s⁻¹.
